Test results published in patent publication US20150259380A1 (SANFORD BURNHAM MEDICAL RESEARCH INSTITUTE, published 2015).
Ends that are not written are not given here.

T1: recombinant human NRP2 Fc chimera (R&D), purified (human, UniProt O60462 23-864)
T1 construct: Bought Fc chimera; also called purified NRP2; neuropilin-2; Fc part of the bought chimera not given; not described
T1 sequence (looked up): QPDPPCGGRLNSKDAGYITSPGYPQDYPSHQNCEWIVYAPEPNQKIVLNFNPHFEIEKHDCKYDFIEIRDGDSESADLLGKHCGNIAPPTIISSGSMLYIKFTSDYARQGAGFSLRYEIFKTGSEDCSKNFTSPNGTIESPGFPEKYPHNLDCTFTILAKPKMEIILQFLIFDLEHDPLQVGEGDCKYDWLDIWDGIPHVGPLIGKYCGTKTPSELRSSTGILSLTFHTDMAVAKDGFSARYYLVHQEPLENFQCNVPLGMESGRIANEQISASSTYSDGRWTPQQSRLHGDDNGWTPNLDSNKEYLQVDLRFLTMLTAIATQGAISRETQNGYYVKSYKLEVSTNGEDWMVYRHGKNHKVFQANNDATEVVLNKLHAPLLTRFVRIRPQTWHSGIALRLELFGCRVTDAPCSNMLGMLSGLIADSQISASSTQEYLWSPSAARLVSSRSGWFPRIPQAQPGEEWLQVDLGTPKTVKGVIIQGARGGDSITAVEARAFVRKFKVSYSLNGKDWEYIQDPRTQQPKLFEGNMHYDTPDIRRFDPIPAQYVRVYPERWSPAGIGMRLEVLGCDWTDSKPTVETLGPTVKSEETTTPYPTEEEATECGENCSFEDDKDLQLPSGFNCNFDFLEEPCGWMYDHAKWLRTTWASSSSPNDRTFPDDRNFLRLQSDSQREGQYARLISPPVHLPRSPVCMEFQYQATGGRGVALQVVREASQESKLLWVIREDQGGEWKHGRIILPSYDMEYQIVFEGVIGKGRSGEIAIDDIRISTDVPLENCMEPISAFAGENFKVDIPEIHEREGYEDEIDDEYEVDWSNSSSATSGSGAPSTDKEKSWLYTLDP

T2: recombinant human NRP1 (R&D), purified (human, UniProt O14786-2 22-644, limits assumed)
T2 construct: Bought protein; also called purified NRP1; immobilized NRP1
T2 sequence (looked up): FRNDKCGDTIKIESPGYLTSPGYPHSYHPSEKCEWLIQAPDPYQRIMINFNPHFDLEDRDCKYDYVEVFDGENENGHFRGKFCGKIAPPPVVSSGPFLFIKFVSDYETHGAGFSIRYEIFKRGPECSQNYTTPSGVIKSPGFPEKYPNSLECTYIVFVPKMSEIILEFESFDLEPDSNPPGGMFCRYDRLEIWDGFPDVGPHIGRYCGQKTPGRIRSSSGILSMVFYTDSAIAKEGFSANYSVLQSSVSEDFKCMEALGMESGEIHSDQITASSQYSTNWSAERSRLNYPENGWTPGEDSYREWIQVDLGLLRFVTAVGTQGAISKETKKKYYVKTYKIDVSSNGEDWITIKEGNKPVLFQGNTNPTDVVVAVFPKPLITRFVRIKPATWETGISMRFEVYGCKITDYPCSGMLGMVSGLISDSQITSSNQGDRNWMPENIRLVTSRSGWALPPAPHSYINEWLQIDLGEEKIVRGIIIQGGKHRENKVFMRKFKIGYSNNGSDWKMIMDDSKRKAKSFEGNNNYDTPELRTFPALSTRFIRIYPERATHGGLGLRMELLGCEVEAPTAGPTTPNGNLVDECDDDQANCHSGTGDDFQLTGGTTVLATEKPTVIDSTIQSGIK

T3: p32 in 4T1 breast tumor extracts (mouse, UniProt O35658 71-278)
T3 construct: Endogenous protein from tumor extract
T3 sequence (looked up): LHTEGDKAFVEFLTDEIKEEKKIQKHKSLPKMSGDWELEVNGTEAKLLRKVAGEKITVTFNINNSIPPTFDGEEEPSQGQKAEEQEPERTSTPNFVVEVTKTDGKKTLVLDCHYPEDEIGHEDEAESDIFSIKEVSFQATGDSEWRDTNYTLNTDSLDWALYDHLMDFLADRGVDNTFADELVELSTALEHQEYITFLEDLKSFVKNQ


Tests used:
[1] = target: T1, recombinant human NRP2 Fc chimera …; assay: phage binding to NRP2-coated microtiter wells, plaque titration (FIG. 3A)
Method: B. MDA-MB-435 cells were incubated with phage at 4° C. to assess NRP2 binding. […] Binding is expressed as percentage of binding in control conditions. (mean±SEM; n=4/group; * p<0.05; **, p<0.01).
(§1) Microtiter wells (Costar) were coated with 5 μg/mL of purified NRP1 or NRP2, blocked with PBS supplemented with 0.5% BSA and incubated with 10⁸ plaque-forming units (pfu) of phage in 100 μL of PBS/0.05% Tween 20 for 20 h at 37° C. After six washes in PBS/0.05% Tween 20, bound phage was eluted with 200 μL of 1 M Tris-HCl (pH 7.5)/0.5% SDS for 30 min and quantified by a plaque assay (titration).

[2] = target: T2, recombinant human NRP1 (R&D), purified; assay: phage binding to NRP1-coated microtiter wells, plaque titration (FIG. 2)
Method: as §1

[3] = target: T4, NRP1 on human tumor cells (DU145 prostate carcinoma cells; PPC1 prostate tumor cells) (human, UniProt O14786 22-923); assay: 10^9 pfu phage on cultured PPC1 cells, anti-T7 staining, confocal microscopy
T4 construct: whole, on cells; DU145 express NRP1 but not NRP2; PPC1 express very high NRP1 and low NRP2; also called neuropilin-1; CendR receptor
Method: Phage were detected by staining with anti-T7 phage polyclonal antibody. Nuclei were stained with DAPI. […] Cells were co-stained for NRP1 and nuclei were stained with DAPI. […] Non-conjugated neutravidin was used as a control. Nuclei were stained with DAPI. Cells were analyzed by confocal microscopy.

[4] = target: T4, NRP1 on human tumor cells (DU145 …); assay: phage binding to DU145 cells at 4 C with or without anti-NRP1 (FIG. 1B)
[5] = target: T3, p32 in 4T1 breast tumor extracts; assay: affinity chromatography of 4T1 tumor extracts on immobilized tLyP-1

Binder	binding as fold over control (insertless) phage [1] [fold]	binding as fold over control (insertless) phage [2] [fold]	binding result [4]	other results
CGNKRTRGC (also: cyclic nonapeptide, ring not given here, displayed on T7 phage, LyP-1 is described as a cyclic nonapeptide; also called intact LyP-1) [LyP-1 phage (T7 phage displaying full-length LyP-1, CGNKRTRGC)]	0.6	1.6		binding result [1]: no binding; binding result [2]: no binding; binding result [3]: no binding
RPARPAR [RPARPAR phage (T7 phage displaying the prototypic CendR peptide RPARPAR)]	29	276		binding ratio over the control phage [2]: 280 fold
CGNKR [CGNKR phage (truncated LyP-1, amino acids 1-5 of SEQ ID NO:10)]			no binding	
CGNK [CGNK phage (truncated LyP-1, amino acids 1-4 of SEQ ID NO:10)]			no binding	
CGNKRTR (also called CGNKRTR phage; phage tLyP-1) [tLyP-1 phage (T7 phage displaying CGNKRTR, truncated LyP-1)]	8	119		binding as fold over insertless control phage [2]: ~120 fold
CGNKRTR (the coupling is not described) [tLyP-1 affinity matrix (immobilized tLyP-1 peptide)]				binding result [5]: no binding
